Measurements published in patent publication US20160320391A1 (Genentech, published 2016).

Legend:
[1] = target: T1, purified recombinant soluble hamster (Cricetulus griseus) phospholipase B-like 2 (PLBL2), his-tagged (hamster (Cricetulus griseus)); assay: sandwich ELISA, 19C10 coated as capture antibody, PLBL2 standard titrated, detection with biotinylated 15G11 and streptavidin-HRP, OD 450 nm; the value describes the whole sandwich
T1 construct: Transiently expressed in CHO-K1 cells and purified from the supernatant; In the rabbit serum assay the protein was biotinylated; also called PLB2; PLBD2; not shown: histidine (his) tag added
T1 chain: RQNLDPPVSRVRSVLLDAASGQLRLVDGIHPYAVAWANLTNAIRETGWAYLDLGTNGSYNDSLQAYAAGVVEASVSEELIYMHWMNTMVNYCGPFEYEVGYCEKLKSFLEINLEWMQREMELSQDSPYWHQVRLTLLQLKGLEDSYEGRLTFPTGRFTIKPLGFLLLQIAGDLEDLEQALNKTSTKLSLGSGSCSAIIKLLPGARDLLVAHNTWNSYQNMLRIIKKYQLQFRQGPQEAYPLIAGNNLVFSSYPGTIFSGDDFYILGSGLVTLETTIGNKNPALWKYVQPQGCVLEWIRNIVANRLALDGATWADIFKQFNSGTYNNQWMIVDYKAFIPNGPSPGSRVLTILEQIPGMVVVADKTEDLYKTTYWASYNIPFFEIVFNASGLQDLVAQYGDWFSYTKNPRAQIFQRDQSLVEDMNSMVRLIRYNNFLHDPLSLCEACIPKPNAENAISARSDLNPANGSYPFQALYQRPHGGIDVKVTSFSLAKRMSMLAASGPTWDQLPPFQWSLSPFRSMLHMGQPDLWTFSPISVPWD
Protocol: (§1) An ELISA assay to detect and quantify the CHOP impurity, PLBL2, in recombinant polypeptide samples, such as recombinant antibody or immunoadhesin preparations, was developed. The procedure is as follows. Murine monoclonal antibody 19C10 was coated onto a half area 96-well microtiter plate at a concentration of 0.5 μg/mL in carbonate buffer (0.05M sodium carbonate, pH 9.6), overnight at 2-8° C. After coating, the plate was blocked with Blocking Buffer (0.15M NaCl, 0.1M sodium phosphate, 0.1% fish gelatin, 0.05% polysorbate 20, 0.05% Proclin® 300 [Sigma-Aldrich]; also referred to as Assay Diluent) to prevent non-specific sticking of proteins. […]
(§2) After a 2 hr. incubation step with biotinylated 15G11 at room temperature, Streptavidin HRP (1:200,000 dilution in Assay Diluent) was added to the microtiter plate wells. After a final wash step with Wash Buffer (described above), color was developed (for PLBL2 quantification) by adding a solution of TMB (50 μl/well) (SUREBLUE RESERVE™ from KPL, Kirkegaard & Perry Laboratories, Inc., Gaithersburg, Md., cat no. 53-00-03) followed by incubation at room temperature for 10-20 minutes. […]

[2] = target: T1, purified recombinant soluble hamster …; assay: sandwich ELISA, biotinylated 15G11 as detection antibody on PLBL2 standard captured by coated 19C10, streptavidin-HRP, OD 450 nm; the value describes the whole sandwich
Protocol: as §1, §2

B1: 19C10 (recombinant murine monoclonal anti-hamster PLBL2 antibody) (antibody, mouse IgG1, kappa, V domains shown)
VH: EVQLQESGPCLVKPSQTLSLTCSVTGDSITSGYWNWIRKFPGNKLESMGYISYSGSTYYNPSLKSRISITRDTSKNQYYLQLNSVTTEDTATYYCARIASWITTYFDYWGQGTTLTVSS
VL: DIVMTQSPAILSVSPGERVSFSCRASQSIGTSIHWYQQRRNGSPRLLIKYASESISGIPSRFSGSGSGTDFILSINSVESEDIADYYCQQSNSWPYTFGGGTKLELKR
notes: Mouse IgG1, kappa, expressed transiently in 293 or CHO cells; also called capture antibody; coat antibody
EC50 (read off the curve) [1]: ~10 ng/mL

B2: 15G11 anti-PLBL2 murine monoclonal antibody conjugated to biotin (antibody, mouse IgG1, kappa, V domains shown)
VH: EVKLEESGGGLVQPGGSTKLSCAASGFTFSDAWMDWVRQCPEKGLEWVAEISSKANNRATYYAESVKGRFTISRDDSKSCVYLQMNSLRAEDTGIYYCTRRGYTMDYWGQGTSVTVSS
VL: DIVMTQSQKFMSTSVGDRVSVTCKASQNVDTNVAWYQQKPGQSPKALIFSASYRFSGVPDRFTGSGSGTDFTLTISNVQSEDLAEYFCQQYNNFPFTFGSGTKLELKR
modifications: biotin conjugated with E-Z Link NHS-Biotin; sites not stated
notes: Mouse IgG1, kappa, biotinylated; Used as the detection antibody of the monoclonal PLBL2 ELISA; also called biotinylated 15G11; detection antibody
EC50 (read off the curve) [2]: ~10 ng/mL
